According to patent US20240067734A1 (Hoffmann-La Roche, published 2024):
Like-named read-outs stand apart in the source and are kept apart here.

T1: human NKG2D expressed on cells (human, UniProt P26718 1-216)
T1 construct: the cell type is named under assay; also called NKG2D on NK92 cells; HEK293T human NKG2D
T1 chain: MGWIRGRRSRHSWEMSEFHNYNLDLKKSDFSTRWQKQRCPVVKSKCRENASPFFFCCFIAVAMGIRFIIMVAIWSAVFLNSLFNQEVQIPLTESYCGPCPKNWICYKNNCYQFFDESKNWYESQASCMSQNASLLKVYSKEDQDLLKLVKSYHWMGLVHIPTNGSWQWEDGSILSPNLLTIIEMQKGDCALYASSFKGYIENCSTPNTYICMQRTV


Assays:
[1] = biological target: T1, human NKG2D expressed on cells; assay: flow cytometry on NK92 cells, PE anti-human Fc secondary antibody
Method: The anti-NKG2D antibodies P1AE4980, C26 and ADI27743 from Example 21 were tested for binding to NKG2D on NK92 cells.
Viability of NK92 cells was checked and cells were re-suspended and adjusted to a density of 1.5 mio cells/ml. 100 μl of this cell suspension (containing 0.15 mio cells) were seeded into a 96 well round bottom plate. The plate was centrifuged for 4 min at 400×g and the supernatant was removed. Then 40 μl of the diluted antibodies or FACS buffer were added to the cells and incubated for 30 min at 4° C. After the incubation the cells were washed twice with 150 μl FACS buffer per well. […] The cells were incubated for an additional 30 min at 4° C. To remove unbound antibody the cells were washed again twice with 150 μl per well FACS buffer. For the measurement, the cells were re-suspended in 150 μl FACS buffer. The fluorescence was measured using a BD flow cytometer.

[2] = biological target: T1, human NKG2D expressed on cells; assay: flow cytometry on NKG2D-positive NK92 cells, anti-human Fc secondary antibody
[3] = biological target: T1, human NKG2D expressed on cells; assay: as above
Method: Viability of NK92 cells or tumor cells (MKN-45, LS180) was checked and cells were re-suspended and adjusted to a density of 1 mio cells/ml. 100 μl per well of this cell suspension (containing 0.1 mio cells) were seeded into a 96 well round bottom plate. The plate was centrifuged for 4 min at 400×g and the supernatant was removed. Then 40 μl of the diluted antibodies or FACS buffer were added to the cells and incubated for 30 min at 4° C. After the incubation the cells were washed twice with 150 μl FACS buffer per well. […] The cells were incubated for an additional 30 min at 4° C. To remove unbound antibody, the cells were washed again twice with 150 μl per well FACS buffer. To fix the cells, 100 μl of FACS buffer containing 1% PFA were added to the wells. Before measuring, the cells were re-suspended in 150 μl FACS buffer. The fluorescence was measured using a BD flow cytometer.

| Binder | binding result [1] | EC50 (read off the curve) [2] | further results |
| --- | --- | --- | --- |
| NKG2D×CEA bispecific antibody, anti-NKG2D 320 / anti-CEA B9, J format (bispecific antibody, V domains shown, also called format J (320); tetravalent construct J) VH 1: EVQLLESGGGLVQPGGSLRLSCATSGFTFSDYAMSWVRQAPGKGLEWVSYNSFSVGSTDYADSVKGRFTISRDNSKNTLYLQMNSLRAEDTAVYYCSKHSGNYYTGPFHYWGQGTLVTVSS VL 1: DIQLTQSPSFLSASVGDRVTITCRASQGISSYLAWYQQKPGKAPKLLIYAASSLESGVPSRFSGSGSGTDFTLTISSLQPEDFATYYCQQSYSTPITFGQGTRLEIK VH 2: VQLVESGGGLVQPGRSLRLSCAASGFTVSSYWMHWVRQAPGKGLEWVGFIRNKANGGTTEYAASVKGRFTISRDDSKNTLYLQMNSLRAEDTAVYYCARDRGLRFYFDYWGQGTTVTVSS VL 2: QAVLTQPASLSASPGASASLTCTLRRGINVGAYSIYWYQQKPGSPPQYLLRYKSDSDKQQGSGVSSRFSASKDASANAGILLISGLQSEDEADYYCMIWHSGASAVFGGGTKLTVL | – | ~6 nM | – |
| NKG2D×CEA bispecific antibody, anti-NKG2D 395 (C50S) / anti-CEA B9, I format (bispecific antibody, V domains shown, also called bivalent I format) VH 1: QEQLEQSGGGLVTPGGSLKLCCTASGFDFNTFWMTWVRQAPGKGLEWIGSIHGGSGSRDYASWVNGRFTLSRDIDQSTACLQVNSLTAADTAMYYCARPGYRSWSKTFDLWGQGTMVTVSS VL 1: DIQMTQSPSSLSASVGDRVTITCRASQDISGALNWYQQKPGKAPNLLIYAASSLQSGVPSRFSGSGSGTDYTLTISSLQPEDFATYYCQQANSFPLTFGGGTKVEIK VH 2: VQLVESGGGLVQPGRSLRLSCAASGFTVSSYWMHWVRQAPGKGLEWVGFIRNKANGGTTEYAASVKGRFTISRDDSKNTLYLQMNSLRAEDTAVYYCARDRGLRFYFDYWGQGTTVTVSS VL 2: QAVLTQPASLSASPGASASLTCTLRRGINVGAYSIYWYQQKPGSPPQYLLRYKSDSDKQQGSGVSSRFSASKDASANAGILLISGLQSEDEADYYCMIWHSGASAVFGGGTKLTVL | – | – | EC50 (read off the curve) [3]: ~2 nM |
| NKG2D×CEA bispecific antibody, anti-NKG2D 320 / anti-CEA B9, I format (bispecific antibody, V domains shown, also called format I (320); I format with antibody 320) VH 1: EVQLLESGGGLVQPGGSLRLSCATSGFTFSDYAMSWVRQAPGKGLEWVSYNSFSVGSTDYADSVKGRFTISRDNSKNTLYLQMNSLRAEDTAVYYCSKHSGNYYTGPFHYWGQGTLVTVSS VL 1: DIQLTQSPSFLSASVGDRVTITCRASQGISSYLAWYQQKPGKAPKLLIYAASSLESGVPSRFSGSGSGTDFTLTISSLQPEDFATYYCQQSYSTPITFGQGTRLEIK VH 2: VQLVESGGGLVQPGRSLRLSCAASGFTVSSYWMHWVRQAPGKGLEWVGFIRNKANGGTTEYAASVKGRFTISRDDSKNTLYLQMNSLRAEDTAVYYCARDRGLRFYFDYWGQGTTVTVSS VL 2: QAVLTQPASLSASPGASASLTCTLRRGINVGAYSIYWYQQKPGSPPQYLLRYKSDSDKQQGSGVSSRFSASKDASANAGILLISGLQSEDEADYYCMIWHSGASAVFGGGTKLTVL | – | ~10 nM | – |

More lines, main results first:

| binding result [1] | EC50 (read off the curve) [2] | Binder | further results |
| --- | --- | --- | --- |
| binds | – | anti-NKG2D antibody C26 IgG (PG LALA) (antibody, V domains shown, Human IgG1 with PGLALA; variable domains from WO 2018/148445) VH: QVQLQQWGAGLLKPSETLSLTCAVYGGSFSGYYWSWIRQPPGKGLEWIGEIDHSGSTNYNPSLKSRVTISVDTSKNQFSLKLSSVTAADTAVYYCARARGPWSFDPWGQGTLVTVSS VL: DIQMTQSPSTLSASVGDRVTITCRASQSISSWLAWYQQKPGKAPKLLIYKASSLESGVPSRFSGSGSGTEFTLTISSLQPDDFATYYCQQYGSFPITFGGGTKVEIKR | – |
| binds | – | anti-NKG2D antibody ADI27743 IgG (PG LALA) (antibody, V domains shown, Human IgG1 with PGLALA; variable domains from WO 2018/148445) VH: QVQLQQWGAGLLKPSETLSLTCAVYGGSFSGYYWSWIRQPPGKGLEWIGEIDHSGSTNYNPSLKSRVTISVDTSKNQFSLKLSSVTAADTAVYYCARARGPWSFDPWGQGTLVTVSS VL: not shown | – |
| binds | – | anti-NKG2D antibody P1AE4980 (IgG) (antibody, V domains shown, Tested as IgG beside C26 and ADI27743 (human IgG1 PGLALA)) VH: QEQLVQSGAEVKKPGESLKISCKGSGFDFNTFWMTWVRQMPGKGLEWMGSIHGGSGSRDYSPSFQGQVTISADIDQSTAYLQWSSLKASDTAMYYCARPGYRSWSKTFDLWGQGTTVTVSS VL: DIQMTQSPSSLSASVGDRVTITCRASQDISGALNWYQQKPGKAPNLLIYAASSLQSGVPSRFSGSGSGTDYTLTISSLQPEDFATYYCQQANSFPLTFGGGTKVEIK | – |
